Reference: article PMC7558290, “Evaluation on Elongation Factor 1 Alpha of Entamoeba histolytica Interaction with the Intermediate Subunit of the Gal/GalNAc Lectin and Actin in Phagocytosis” (Pathogens, 2020)

Target: T1, recombinant EF1a protein (rEF1a), elongation factor 1 alpha of Entamoeba histolytica (Entamoeba histolytica, UniProt P31018 1-442)
T1 construct: Elongation factor 1 alpha (EF1a) of Entamoeba histolytica
T1 sequence (looked up): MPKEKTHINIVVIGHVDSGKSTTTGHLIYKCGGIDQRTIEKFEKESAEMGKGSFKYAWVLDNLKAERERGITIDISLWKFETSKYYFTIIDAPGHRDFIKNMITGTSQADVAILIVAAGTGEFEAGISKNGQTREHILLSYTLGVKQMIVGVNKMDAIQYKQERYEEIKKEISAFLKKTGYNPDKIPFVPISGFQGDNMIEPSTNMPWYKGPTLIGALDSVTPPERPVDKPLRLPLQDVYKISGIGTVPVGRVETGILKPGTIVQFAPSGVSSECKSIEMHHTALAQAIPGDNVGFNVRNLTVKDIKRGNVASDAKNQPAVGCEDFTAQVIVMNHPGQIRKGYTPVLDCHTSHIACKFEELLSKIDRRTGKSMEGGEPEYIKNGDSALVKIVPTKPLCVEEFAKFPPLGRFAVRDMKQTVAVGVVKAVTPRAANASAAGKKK
Assay: BLI; Octet-Red96; Igl-C (30 ug/mL, sodium acetate pH 4.0) or BSA (sodium acetate pH 5.0) immobilised on activated AR2G biosensors; rEF1a as analyte, twofold dilutions 4000 to 250 nM; running buffer pH 7.4, 1x Kinetics buffer, 30 °C; 1:1 binding model
Settings: both partners purified

B1: C-terminal fragment of the intermediate subunit of the Gal/GalNAc lectin (Igl-C) (domain or fragment)
chain: EGPNAEDKKKSCAQLNNNCKKEGKYEISDGFVTCLDCDDSAYIVGSQVGACTQCSPNAFKDENNKCQLCSTKQSQYGHCAACSATACITCEDINLILTGEKPCTVCKDGFYQIENATDGVYCSPCPAKCKTCKYNTTSKKVECVTCTEQRLKDIKAPECACPTGTVQLENGTCQSCSDLSKYPGCKKTDSCNVDSRTGFIYATECSDGFSGRSPYSNCTTCTKSNYYPKEGEKNGCAKCDDKCATCSDKDTCLTCADPLKVGSKCDGCKTGYYMSNGECKPCTNHCSECSSAAECTVCESDTYKVISGNGCNSCVDGFYFDEIKGTCIPCTSPCTKCVGVKKDCEEQETGCNSEKKKIVEECTKCSTKDHIAEVPVNGACVCAYGYVEGTSTEDNKIECQACKAKVNEFCDSCNSKDCLRCNAEYLEAKGGECVCVEGYYTSSWGSCIPCSRHMPHCTKCTGEGECTTCEDGWKLKDGKCNGAKGI
- Kd: 90.7 nM
- koff: 0.000347 s⁻¹
- kon: 3810 M⁻¹ s⁻¹
